Measurements as given in EP4631959A2, “NOVEL MINIGASTRIN-DERIVED CHOLECYSTOKININ 2 RECEPTOR BINDING MOLECULES FOR IMAGING AND TARGETED RADIOTHERAPY” (priority 2022, dated 2024).
Read-outs that look alike come from different tables or passages of the source. Starred links: 1 amine or outer side, 2 acyl side, 3 side chain; linkers in the order of their positions; H or OH if unused. Non-standard residues stand in square brackets, D forms with d. Residues, ends and D or L forms follow the SMILES beside them. *: point of attachment. DOTAGA = O=C(O)CN1CCN(CC(=O)O)CCN(C(CCC(=O)*)C(=O)O)CCN(CC(=O)O)CC1; Benzoyl(4-SiFtBu2) = CC(C)(C)[Si](F)(c1ccc(C(=O)*)cc1)C(C)(C)C; DOTA = O=C(O)CN1CCN(CC(=O)O)CCN(CC(=O)*)CCN(CC(=O)O)CC1; d(γGlu) = O=C(O)[C@@H](CCC(=O)[*:2])N[*:1]; 1Nal = N[C@@H](Cc1cccc2ccccc12)C(=O)O; PEG5 = NCCOCCOCCOCCOCCOCCC(=O)O; NMeNle = CCCC[C@H](NC)C(=O)O; PEG4 = NCCOCCOCCOCCOCCC(=O)O; Nle = CCCC[C@H](N)C(=O)O; dDap = NC[C@@H](N)C(=O)O

Tests used:
[1] = n-Octanol-PBS distribution coefficient (logD7.4); format: physicochemical; settings: for logD7.4 (n ≥ 5), ^177Lu-labeled: pH = 7.4, ^177Lu-labeled
Method: Approximately 1 MBq of the labeled tracer was dissolved in 1 mL of a 1/1 mixture (v/v) of phosphate buffered saline (PBS, pH = 7.4) and n-octanol in an Eppendorf tube (1.5 mL). After vigorous mixing of the suspension for 3 min at rt, the vial was centrifuged at 9,000 rpm for 5 min (Biofuge 15, Heraeus Sepatech, Osterode, Germany) and 200 µL aliquots of both layers were measured in a γ-counter. The experiment was repeated at least five times.

[2] = molecular target: T1, CCK-2R (Rattus norvegicus, UniProt P30553); test: Determination of IC50: CCK-2R affinity on AR4-2J cells, competition with [^177Lu]Lu-DOTA-PP-F11N; format: binding; settings: AR4-2J cells
T1 construct: The CCK-2R expressing rat pancreatic tumor cells AR4-2J; host or cells: AR4-2J rat pancreatic tumor cells
T1 sequence (P30553 1-452): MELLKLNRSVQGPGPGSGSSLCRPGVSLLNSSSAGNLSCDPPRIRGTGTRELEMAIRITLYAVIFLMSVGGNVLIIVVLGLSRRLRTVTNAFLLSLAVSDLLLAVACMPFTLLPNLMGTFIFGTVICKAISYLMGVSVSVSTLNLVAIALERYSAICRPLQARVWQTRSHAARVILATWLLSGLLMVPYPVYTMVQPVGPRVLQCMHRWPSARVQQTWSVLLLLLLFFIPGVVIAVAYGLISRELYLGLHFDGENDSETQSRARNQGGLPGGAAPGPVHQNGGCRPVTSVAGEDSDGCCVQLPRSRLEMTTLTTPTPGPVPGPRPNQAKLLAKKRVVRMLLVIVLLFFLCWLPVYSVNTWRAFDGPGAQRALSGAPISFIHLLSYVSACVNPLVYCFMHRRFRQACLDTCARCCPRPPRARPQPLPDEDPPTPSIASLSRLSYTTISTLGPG
Summary of the method: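 Competitive displacement of 0.3 pmol/well [177Lu]Lu-DOTA-PP-F11N by compounds (10^-10 to 10^-4 M) on AR4-2J cells in BSA-supplemented medium, 3 h at 37 °C. Free label was collected from medium plus PBS rinse, and cell-bound label was recovered with 1 M NaOH, both measured by γ-counter. Each IC50 was determined twice, in triplicate.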

[3] = molecular target: T2, Human serum albumin (HSA) (Homo sapiens, UniProt P02768); test: Determination of HSA binding on a Chiralpak HSA column; format: in vitro ADME
T2 construct: purchased Daicel, Tokyo, Japan H13H-2433
T2 sequence (P02768 25-609): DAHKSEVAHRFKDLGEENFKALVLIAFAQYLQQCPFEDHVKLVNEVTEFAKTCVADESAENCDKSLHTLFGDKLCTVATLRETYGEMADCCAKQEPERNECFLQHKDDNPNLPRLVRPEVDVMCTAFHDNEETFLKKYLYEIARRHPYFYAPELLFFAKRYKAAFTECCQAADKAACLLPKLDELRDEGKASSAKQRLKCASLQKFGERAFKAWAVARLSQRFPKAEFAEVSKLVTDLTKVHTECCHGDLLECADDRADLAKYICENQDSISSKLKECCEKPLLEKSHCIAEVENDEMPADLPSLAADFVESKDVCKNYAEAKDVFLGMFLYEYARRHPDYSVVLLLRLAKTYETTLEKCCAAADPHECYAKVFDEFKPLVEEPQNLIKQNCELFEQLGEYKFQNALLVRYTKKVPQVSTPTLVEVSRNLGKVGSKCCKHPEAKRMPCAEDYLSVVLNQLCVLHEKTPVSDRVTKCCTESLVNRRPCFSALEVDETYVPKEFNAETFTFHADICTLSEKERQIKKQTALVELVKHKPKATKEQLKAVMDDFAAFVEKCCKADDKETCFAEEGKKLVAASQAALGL
Method: Human serum albumin (HSA) binding of the CCK-2R-targeted compounds was determined as reported by Valko et al., using a Chiralpak HSA column (50 x 3 mm, 5 µm, H13H-2433, Daicel, Tokyo, Japan) at a constant flow rate of 0.5 mL/min at rt. Therefore, an aq. solution of NH4OAc (pH = 6.9, 50 mM) as mobile phase A and isopropanol as mobile phase B were freshly prepared. In order to calibrate the column prior to the experiments, the retention times of nine reference substances with a HSA binding in the range of 13 to 99% were determined using a gradient of 100% A (0 to 3 min), followed by 80% A (3 to 40 min). Furthermore, all substances tested, were dissolved in a mixture (1/1, v/v) of A and B reaching a final concentration of 0.5 mg/mL. The HSA binding of all rhCCK ligands tested, was determined using the same gradient as for the calibration probes. The non-linear regression of the calibration experiments and the CCK-2R ligands (Fig. 29) was established using the OriginPro 2016G software (Northampton, United States).

[4] = ^natLu-labeled, read-out: IC50 [nM] (n = 3), ^natLu-labeled
[5] = read-out: IC50 [nM] (n = 3), ^natLu-labeled, ^natLu-labeled

| Structure (SMILES) | logD7.4 (n ≥ 5), ^177Lu-labeled [1] | IC50 [2, 5] [nM] | other results |
| --- | --- | --- | --- |
| CCCC[C@@H](C(=O)N[C@@H](CC(=O)O)C(=O)N[C@@H](Cc1cccc2ccccc12)C(N)=O)N(C)C(=O)[C@H](Cc1c[nH]c2ccccc12)NC(=O)CCOCCOCCOCCOCCNC(=O)[C@@H](CCC(=O)O)NC(=O)CN1CCN(CC(=O)O)CCN(CC(=O)O)CCN(CC(=O)O)CC1 [DOTA-CCK-66.2, DOTA-glu-(PEG)3-Trp-(N-Me)Nle-Asp-1-Nal-NH2] ({DOTA}-[dE][PEG4]W[NMeNle]D[1Nal]-NH2) | −2.69 ± 0.09 | – | logD7.4 (n ≥ 5), ^64Cu-labeled ([1]; pH = 7.4, ^64Cu-labeled): −2.84 ± 0.08; logD7.4 (n ≥ 5), ^67Ga-labeled ([1]; pH = 7.4, ^67Ga-labeled): −2.55 ± 0.04; IC50 ([2]; ^natCu-labeled, read-out: IC50 [nM] (n = 3), ^natCu-labeled): 5.8 ± 0.2 nM; IC50 ([2]; ^natGa-labeled, read-out: IC50 [nM] (n = 3), ^natGa-labeled): 6 ± 1 nM; IC50 [2, 4]: 4.8 ± 0.9 nM; HSA binding [%], ^natCu-labeled [3]: 61.1%; HSA binding [%], ^natGa-labeled [3]: 54.2%; HSA binding [%], ^natLu-labeled [3]: 72.7% |
| CCCC[C@@H](C(=O)N[C@@H](CC(=O)O)C(=O)N[C@@H](Cc1cccc2ccccc12)C(N)=O)N(C)C(=O)[C@H](Cc1c[nH]c2ccccc12)NC(=O)CCOCCOCCOCCOCCNC(=O)CC[C@@H](NC(=O)CCOCCOCCOCCOCCOCCNC(=O)[C@@H](CNC(=O)c1ccc([Si](F)(C(C)(C)C)C(C)(C)C)cc1)NC(=O)CN1CCN(CC(=O)O)CCN(CC(=O)O)CCN(CC(=O)O)CC1)C(=O)O [DOTA-rhCCK-67, DOTA-dap(SiFA)-(PEG)4-γ-glu-(PEG)3-Trp-(N-Me)Nle-Asp-1-Nal-NH2] ({DOTA}-[dDap](Benzoyl(4-SiFtBu2))[PEG5][d(γGlu)][PEG4]W[NMeNle]D[1Nal]-NH2) | −1.05 ± 0.09 | – | IC50 [2, 4]: 13 ± 1.1 nM; IC50 ([2]; read-out: IC50 [nM] (n = 3), ^natGa-labeled, ^natGa-labeled): 49.5 ± 3.7 nM; HSA binding [%] ([3]; Tab. 8, metal not stated (Fig. 18: ^natLu)): 92.9% |
| CCCC[C@H](NC(=O)[C@H](Cc1c[nH]c2ccccc12)NC(=O)CNC(=O)[C@H](Cc1ccc(O)cc1)NC(=O)[C@H](C)NC(=O)[C@@H](CCC(=O)O)NC(=O)[C@@H](CCC(=O)O)NC(=O)[C@@H](CCC(=O)O)NC(=O)[C@@H](CCC(=O)O)NC(=O)[C@@H](CCC(=O)O)NC(=O)[C@@H](CCC(=O)O)NC(=O)[C@@H](CCC(=O)O)NC(=O)[C@@H](CCC(=O)O)NC(=O)[C@@H](CNC(=O)c1ccc([Si](F)(C(C)(C)C)C(C)(C)C)cc1)NC(=O)CCC(C(=O)O)N1CCN(CC(=O)O)CCN(CC(=O)O)CCN(CC(=O)O)CC1)C(=O)N[C@@H](CC(=O)O)C(=O)N[C@@H](Cc1ccccc1)C(N)=O (stereo partly shown) [DOTAGA-MG-SiFA-21, DOTAGA-dap(SiFA)-(glu)2-F11N] ({DOTAGA}-[dDap](Benzoyl(4-SiFtBu2))[dE][dE][dE][dE][dE][dE][dE][dE]AYGW[Nle]DF-NH2) | −2.84 ± 0.04 | 55.3 ± 7.8 | – |
| CCCC[C@H](NC(=O)[C@H](Cc1c[nH]c2ccccc12)NC(=O)CNC(=O)[C@H](Cc1ccc(O)cc1)NC(=O)[C@H](C)NC(=O)CC[C@@H](NC(=O)CC[C@@H](NC(=O)CC[C@@H](NC(=O)CC[C@@H](NC(=O)CC[C@@H](NC(=O)CC[C@@H](NC(=O)CC[C@@H](NC(=O)[C@@H](CNC(=O)c1ccc([Si](F)(C(C)(C)C)C(C)(C)C)cc1)NC(=O)CCC(C(=O)O)N1CCN(CC(=O)O)CCN(CC(=O)O)CCN(CC(=O)O)CC1)C(=O)O)C(=O)O)C(=O)O)C(=O)O)C(=O)O)C(=O)O)C(=O)O)C(=O)N[C@@H](CC(=O)O)C(=O)N[C@@H](Cc1ccccc1)C(N)=O (stereo partly shown) [DOTAGA-MG-SiFA-22, DOTAGA-dap(SiFA)-γ-glu-γ-F11N] | −2.16 ± 0.09 | 29.5 ± 1.9 | – |
| CCCC[C@H](NC(=O)[C@H](Cc1c[nH]c2ccccc12)NC(=O)CNC(=O)[C@H](Cc1ccc(O)cc1)NC(=O)[C@H](C)NC(=O)CC[C@@H](NC(=O)CC[C@@H](NC(=O)CC[C@@H](NC(=O)CC[C@@H](NC(=O)CC[C@@H](NC(=O)CC[C@@H](NC(=O)CC[C@@H](NC(=O)CC[C@@H](NC(=O)[C@@H](CNC(=O)c1ccc([Si](F)(C(C)(C)C)C(C)(C)C)cc1)NC(=O)CCC(C(=O)O)N1CCN(CC(=O)O)CCN(CC(=O)O)CCN(CC(=O)O)CC1)C(=O)O)C(=O)O)C(=O)O)C(=O)O)C(=O)O)C(=O)O)C(=O)O)C(=O)O)C(=O)N[C@@H](CC(=O)O)C(=O)N[C@@H](Cc1ccccc1)C(N)=O (stereo partly shown) [DOTAGA-MG-SiFA-23, DOTAGA-dap(SiFA)-(γ-glu)2-γ-F11N] | −2.10 ± 0.06 | 20.4 ± 2 | – |
| CCCC[C@H](NC(=O)[C@H](Cc1c[nH]c2ccccc12)NC(=O)CNC(=O)[C@H](Cc1ccc(O)cc1)NC(=O)[C@H](C)NC(=O)CC[C@@H](NC(=O)CC[C@@H](NC(=O)CC[C@@H](NC(=O)CC[C@@H](NC(=O)[C@@H](CNC(=O)c1ccc([Si](F)(C(C)(C)C)C(C)(C)C)cc1)NC(=O)CC[C@@H](NC(=O)CC[C@@H](NC(=O)CC[C@@H](NC(=O)CCC(C(=O)O)N1CCN(CC(=O)O)CCN(CC(=O)O)CCN(CC(=O)O)CC1)C(=O)O)C(=O)O)C(=O)O)C(=O)O)C(=O)O)C(=O)O)C(=O)O)C(=O)N[C@@H](CC(=O)O)C(=O)N[C@@H](Cc1ccccc1)C(N)=O (stereo partly shown) [DOTAGA-MG-SiFA-24, DOTAGA-(γ-glu)2-[dap(SiFA)^2]γ-F11N] ({DOTAGA-d(γGlu)-d(γGlu)-d(γGlu)}-[dDap](Benzoyl(4-SiFtBu2))[d(γGlu)][d(γGlu)][d(γGlu)][d(γGlu)]AYGW[Nle]DF-NH2) | −2.72 ± 0.05 | 66.6 ± 4.4 | – |
| CCCC[C@H](NC(=O)[C@H](Cc1c[nH]c2ccccc12)NC(=O)CNC(=O)[C@H](Cc1ccc(O)cc1)NC(=O)[C@H](C)NC(=O)CC[C@@H](NC(=O)CC[C@@H](NC(=O)CC[C@@H](NC(=O)CC[C@@H](NC(=O)[C@@H](CNC(=O)c1ccc([Si](F)(C(C)(C)C)C(C)(C)C)cc1)NC(=O)CC[C@@H](NC(=O)CC[C@@H](NC(=O)CC[C@@H](NC(=O)CC[C@@H](NC(=O)CCC(C(=O)O)N1CCN(CC(=O)O)CCN(CC(=O)O)CCN(CC(=O)O)CC1)C(=O)O)C(=O)O)C(=O)O)C(=O)O)C(=O)O)C(=O)O)C(=O)O)C(=O)O)C(=O)N[C@@H](CC(=O)O)C(=O)N[C@@H](Cc1ccccc1)C(N)=O (stereo partly shown) [DOTAGA-MG-SiFA-25, DOTAGA-(γ-glu)3-[dap(SiFA)^2]γ-F11N] ({DOTAGA-d(γGlu)-d(γGlu)-d(γGlu)-d(γGlu)}-[dDap](Benzoyl(4-SiFtBu2))[d(γGlu)][d(γGlu)][d(γGlu)][d(γGlu)]AYGW[Nle]DF-NH2) | −2.74 ± 0.04 | 62.9 ± 8.1 | – |
| CCCC[C@H](NC(=O)[C@H](Cc1c[nH]c2ccccc12)NC(=O)CNC(=O)[C@H](Cc1ccc(O)cc1)NC(=O)[C@H](C)NC(=O)CC[C@@H](NC(=O)CC[C@@H](NC(=O)CC[C@@H](NC(=O)CC[C@@H](NC(=O)CC[C@@H](NC(=O)[C@@H](CNC(=O)c1ccc([Si](F)(C(C)(C)C)C(C)(C)C)cc1)NC(=O)CC[C@@H](NC(=O)CC[C@@H](NC(=O)CC[C@@H](NC(=O)CC[C@@H](NC(=O)CCC(C(=O)O)N1CCN(CC(=O)O)CCN(CC(=O)O)CCN(CC(=O)O)CC1)C(=O)O)C(=O)O)C(=O)O)C(=O)O)C(=O)O)C(=O)O)C(=O)O)C(=O)O)C(=O)O)C(=O)N[C@@H](CC(=O)O)C(=O)N[C@@H](Cc1ccccc1)C(N)=O (stereo partly shown) [DOTAGA-MG-SiFA-26, DOTAGA-(γ-glu)4-[dap(SiFA)^1]γ-F11N] ({DOTAGA-d(γGlu)-d(γGlu)-d(γGlu)-d(γGlu)}-[dDap](Benzoyl(4-SiFtBu2))[d(γGlu)][d(γGlu)][d(γGlu)][d(γGlu)][d(γGlu)]AYGW[Nle]DF-NH2) | −2.89 ± 0.04 | 37.1 ± 3.8 | – |
